# Results published in article PMC1140373 (Nucleic Acids Research, 2005).
# Numbering of substitutions follows the chain as printed. Numbers in names are those of the source.
# T1: Human TFIIEα, wild type, N-terminal FLAG tag (human, UniProt P29083 1-439)
# T1 sequence (looked up): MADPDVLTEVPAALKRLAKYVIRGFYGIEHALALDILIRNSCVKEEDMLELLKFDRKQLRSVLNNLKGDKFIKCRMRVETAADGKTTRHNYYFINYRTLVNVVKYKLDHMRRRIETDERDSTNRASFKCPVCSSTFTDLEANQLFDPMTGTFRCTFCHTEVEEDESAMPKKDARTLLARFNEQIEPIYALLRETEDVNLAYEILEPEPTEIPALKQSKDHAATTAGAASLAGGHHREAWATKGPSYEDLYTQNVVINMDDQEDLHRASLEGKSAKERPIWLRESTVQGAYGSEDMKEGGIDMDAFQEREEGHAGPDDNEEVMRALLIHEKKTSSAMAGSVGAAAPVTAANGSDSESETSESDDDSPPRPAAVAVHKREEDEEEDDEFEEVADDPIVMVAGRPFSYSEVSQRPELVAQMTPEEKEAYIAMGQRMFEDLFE
# T2: FLAG-tagged wild type TFIIEβ (human, UniProt P29084 1-291)
# T2 sequence (looked up): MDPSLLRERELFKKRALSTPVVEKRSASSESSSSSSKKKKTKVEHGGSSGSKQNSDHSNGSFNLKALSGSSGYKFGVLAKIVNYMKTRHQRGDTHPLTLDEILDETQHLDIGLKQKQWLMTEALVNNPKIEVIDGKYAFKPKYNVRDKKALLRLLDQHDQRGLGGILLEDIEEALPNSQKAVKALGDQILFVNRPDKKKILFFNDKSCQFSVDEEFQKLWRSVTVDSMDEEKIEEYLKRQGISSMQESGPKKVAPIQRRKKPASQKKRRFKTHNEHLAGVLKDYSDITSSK
# B1: Human TFIIEβ, wild type, His6 tagged (natural protein, UniProt P29084 1-291, looked up)
# chain: T2 sequence (looked up)
# B2: Human TFIIEβ I171S, His6 tagged (natural protein, UniProt P29084 1-291, looked up)
# chain: T2 sequence (looked up) with I171S
# B3: Human TFIIEβ I189S, His6 tagged (natural protein, UniProt P29084 1-291, looked up)
# chain: T2 sequence (looked up) with I189S
# Assays:
# [1] = biological target: T3, Glutathione S-transferase (GST)-tagged human XPB (human, UniProt P19447 1-782); assay: cell-based or functional assay
# T3 sequence (P19447 whole entry): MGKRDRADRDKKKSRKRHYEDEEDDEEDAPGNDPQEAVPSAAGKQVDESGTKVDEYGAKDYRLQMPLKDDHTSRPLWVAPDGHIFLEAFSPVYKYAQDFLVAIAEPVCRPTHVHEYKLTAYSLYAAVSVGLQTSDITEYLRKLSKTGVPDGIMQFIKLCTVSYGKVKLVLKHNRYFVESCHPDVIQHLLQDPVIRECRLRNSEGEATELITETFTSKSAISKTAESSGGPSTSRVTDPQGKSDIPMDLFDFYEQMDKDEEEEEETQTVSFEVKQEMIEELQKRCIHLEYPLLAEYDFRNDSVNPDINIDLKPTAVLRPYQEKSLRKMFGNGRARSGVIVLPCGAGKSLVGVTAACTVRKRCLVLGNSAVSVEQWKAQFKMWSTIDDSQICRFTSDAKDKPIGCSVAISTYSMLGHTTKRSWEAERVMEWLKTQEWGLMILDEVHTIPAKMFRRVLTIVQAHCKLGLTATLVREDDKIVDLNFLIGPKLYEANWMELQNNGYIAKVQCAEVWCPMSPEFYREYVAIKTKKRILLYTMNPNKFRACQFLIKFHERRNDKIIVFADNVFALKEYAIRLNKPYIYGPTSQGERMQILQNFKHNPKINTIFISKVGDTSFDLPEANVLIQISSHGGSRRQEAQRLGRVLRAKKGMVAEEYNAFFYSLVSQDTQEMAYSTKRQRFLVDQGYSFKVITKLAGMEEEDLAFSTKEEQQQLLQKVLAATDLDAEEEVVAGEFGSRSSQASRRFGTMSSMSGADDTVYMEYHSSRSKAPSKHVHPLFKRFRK
# co-IP = biological target: the molecule itself; assay: co-IP
# [2] = biological target: T1, Human TFIIEα, wild type, N-terminal …; assay: pull-down
# [3] = biological target: T2, FLAG-tagged wild type TFIIEβ; assay: co-IP
# [4] = biological target: T1, Human TFIIEα, wild type, N-terminal …; assay: co-IP
# [5] = biological target: T3, Glutathione S-transferase (GST)-tagged …; assay: pull-down
Binder,"stimulation of XPB helicase activity, 2 μg of XPB and 1.2 μg of wild-type TFIIEβ [1] [fold]",binding result (co-IP),binding result [2],binding result [3],binding result [4],binding result [5]
B1,3,binds,binds,–,–,–
B2,–,–,–,binds,binds,binds
B3,–,–,–,binds,binds,binds
